Measurements as given in patent US20110165161A1, “ANTI-EPCAM ANTIBODIES THAT INDUCE APOPTOSIS OF CANCER CELLS AND METHODS USING SAME” (priority 2009, published 2011).

How the values were obtained:
[1] = target: T1, EGFI-Cr1 N42E (human, UniProt P16422 24-63); experiment: direct ELISA, coated EGFI-Cr1 fusion, 0.1 µg/ml antibody
T1 construct: not shown: the constant region of human immunoglobulin gamma 1 heavy chain (Cr1) fused at the C-terminus
T1 chain: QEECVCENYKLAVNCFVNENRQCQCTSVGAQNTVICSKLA

[2] = target: T2, EGFI-Cr1 F39A (human, UniProt P16422 24-63); experiment: as above
T2 construct: not shown: The fused constant region of human immunoglobulin gamma 1 heavy chain (Cr1)
T2 chain: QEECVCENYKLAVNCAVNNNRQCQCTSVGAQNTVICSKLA

[3] = target: T3, EGFI-Cr1 E25K (human, UniProt P16422 24-63); experiment: as above
T3 construct: not shown: The fused constant region of human immunoglobulin gamma 1 heavy chain (Cr1)
T3 chain: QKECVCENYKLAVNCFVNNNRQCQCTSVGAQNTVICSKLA

[4] = target: T4, EGFI-Cr1 V40E (human); experiment: as above
T4 construct: not shown: The fused constant region of human immunoglobulin gamma 1 heavy chain (Cr1)
T4 chain: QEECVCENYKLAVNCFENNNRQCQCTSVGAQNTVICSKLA

[5] = target: T5, EGFI-Cr1 Q47A (human, UniProt P16422 24-63); experiment: as above
T5 construct: not shown: the constant region of human immunoglobulin gamma 1 heavy chain (Cr1) fused at the C-terminus
T5 chain: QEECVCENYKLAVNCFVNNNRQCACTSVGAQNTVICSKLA

[6] = target: T6, EGFI-Cr1 T49A (human, UniProt P16422 24-63); experiment: as above
T6 construct: not shown: the constant region of human immunoglobulin gamma 1 heavy chain (Cr1) fused at the C-terminus
T6 chain: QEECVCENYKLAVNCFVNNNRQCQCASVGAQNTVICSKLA

[7] = target: T7, EGFI-Cr1 N37R (human); experiment: as above
T7 construct: not shown: The fused constant region of human immunoglobulin gamma 1 heavy chain (Cr1)
T7 chain: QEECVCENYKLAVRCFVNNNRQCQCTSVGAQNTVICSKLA

[8] = target: T8, EGFI-Cr1 Q45A (human, UniProt P16422 24-63); experiment: as above
T8 construct: not shown: the constant region of human immunoglobulin gamma 1 heavy chain (Cr1) fused at the C-terminus
T8 chain: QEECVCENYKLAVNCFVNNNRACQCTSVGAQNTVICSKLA

[9] = target: T9, EGFI-Cr1 N41A (human, UniProt P16422 24-63); experiment: as above
T9 construct: not shown: The fused constant region of human immunoglobulin gamma 1 heavy chain (Cr1)
T9 chain: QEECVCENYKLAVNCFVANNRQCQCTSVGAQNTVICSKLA

[10] = target: T10, EGFI-Cr1 N43A (human, UniProt P16422 24-63); experiment: as above
T10 construct: not shown: the constant region of human immunoglobulin gamma 1 heavy chain (Cr1) fused at the C-terminus
T10 chain: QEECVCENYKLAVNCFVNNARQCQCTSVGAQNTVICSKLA

[11] = target: T11, EGFI-Cr1 wild type (first EGF-like repeat of human EpCAM fused to the constant region of human immunoglobulin … (human, UniProt P01857-1 99-330 = IgG part)); experiment: as above
T11 construct: cDNA covered aa 1-63; Expressed in COS-7 cells; also called WT; EpCAM EGF-1 fusion protein WT

[12] = target: T12, EGFI-Cr1 Q24A (human, UniProt P16422 25-63); experiment: as above
T12 construct: not shown: The fused constant region of human immunoglobulin gamma 1 heavy chain (Cr1)
T12 chain: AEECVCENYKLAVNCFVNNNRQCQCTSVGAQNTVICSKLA

[13] = target: T13, EGFI-Cr1 E26D (human, UniProt P16422 24-63); experiment: as above
T13 construct: not shown: The fused constant region of human immunoglobulin gamma 1 heavy chain (Cr1)
T13 chain: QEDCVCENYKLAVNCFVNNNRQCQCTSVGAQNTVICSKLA

[14] = target: T14, EGFI-Cr1 A35T (human, UniProt P16422 24-63); experiment: as above
T14 construct: not shown: The fused constant region of human immunoglobulin gamma 1 heavy chain (Cr1)
T14 chain: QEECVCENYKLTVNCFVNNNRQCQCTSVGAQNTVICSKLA

[15] = target: T15, EGFI-Cr1 R44G (human, UniProt P16422 24-63); experiment: as above
T15 construct: not shown: the constant region of human immunoglobulin gamma 1 heavy chain (Cr1) fused at the C-terminus
T15 chain: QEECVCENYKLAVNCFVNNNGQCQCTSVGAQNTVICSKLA

[16] = target: T16, human EpCAM (epithelial cell adhesion/activating molecule) (human, UniProt P16422 24-314); experiment: cell-based or functional assay
T16 sequence: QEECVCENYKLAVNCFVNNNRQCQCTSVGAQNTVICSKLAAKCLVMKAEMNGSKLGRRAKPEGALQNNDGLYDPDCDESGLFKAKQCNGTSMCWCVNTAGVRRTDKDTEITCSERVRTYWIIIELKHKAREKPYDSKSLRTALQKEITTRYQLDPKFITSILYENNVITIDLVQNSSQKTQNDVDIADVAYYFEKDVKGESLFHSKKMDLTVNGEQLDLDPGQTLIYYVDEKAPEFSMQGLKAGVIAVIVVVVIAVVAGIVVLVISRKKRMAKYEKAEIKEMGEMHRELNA

[17] = target: T16, human EpCAM (epithelial cell …); experiment: flow cytometry, CHO/EpCAM cells, 0.1 µg/ml antibody
Procedure: A 300× dilution of human cell hyper-immune serum (HPS 300×) was used as binding positive control for both cell lines here. After 1 hr incubation at 4° C., cells were washed twice with 200 μl FACS buffer (1×PBS containing 1% FBS), stained with 100 μl of 1 μg/ml goat-anti-mouse IgG-PE (Southern Biotech, Cat. No. 1032-09) in FACS buffer and then incubated at 4° C. for 30 min. Cells were washed thrice with FACS buffer and analyzed by flow cytometry (BD LSR, BD Life Sciences).

[18] = target: T16, human EpCAM (epithelial cell …); experiment: cell-based or functional assay; remark: listed apart in the source

relative binding activity (% of WT) [1]: 82% | relative binding activity (% of WT) [2]: 11% | relative binding activity (% of WT) [3]: 2% | relative binding activity (% of WT) [4]: 1% | relative binding activity (% of WT) [5]: 23% | relative binding activity (% of WT) [6]: 63% | relative binding activity (% of WT) [7]: 64% | relative binding activity (% of WT) [8]: 4% | relative binding activity (% of WT) [9]: 0% | relative binding activity (% of WT) [10]: 57% | relative binding activity (% of WT) [11]: 100% | relative binding activity (% of WT) [12]: 41% | relative binding activity (% of WT) [13]: 52% | relative binding activity (% of WT) [14]: 27% | relative binding activity (% of WT) [15]: 1% | % of Annexin V + PI staining (untreated background subtracted), NCI-H358, 10 µg/ml mAb, Exp1 [16]: 43% | % of Annexin V + PI staining (untreated background subtracted), NCI-H358, 10 µg/ml mAb, Exp2 [16]: 41% | % of Annexin V + PI staining (untreated background subtracted), NCI-H358, 10 µg/ml mAb, Exp3 [16]: 45% | % of Annexin V + PI staining (untreated background subtracted), NCI-H358, 10 µg/ml mAb, Exp4 [16]: 46% | % of Annexin V + PI staining (untreated background subtracted), NCI-H358, 10 µg/ml mAb, Exp5 [16]: 43% | MFI [17]: 1740 MFI | % Annexin V/PI-positive cells, DLD-1, 1.0 µg/ml mAb [18]: 31% | % Annexin V/PI-positive cells, DLD-1, 3.0 µg/ml mAb [18]: 51% | % Annexin V/PI-positive cells, DLD-1, 10 µg/ml mAb [18]: 62% | % Annexin V/PI-positive cells, FaDu, 1.0 µg/ml mAb [18]: 37% | % Annexin V/PI-positive cells, FaDu, 3.0 µg/ml mAb [18]: 43% | % Annexin V/PI-positive cells, FaDu, 10 µg/ml mAb [18]: 46% | % Annexin V/PI-positive cells, LNCaP, 1.0 µg/ml mAb [18]: 49% | % Annexin V/PI-positive cells, LNCaP, 3.0 µg/ml mAb [18]: 52% | % Annexin V/PI-positive cells, LNCaP, 10 µg/ml mAb [18]: 50% | % Annexin V/PI-positive cells, NCI-H520, 1.0 µg/ml mAb [18]: 24% | % Annexin V/PI-positive cells, NCI-H520, 3.0 µg/ml mAb [18]: 30% | % Annexin V/PI-positive cells, NCI-H520, 10 µg/ml mAb [18]: 32% | % Annexin V/PI-positive cells, NCI-N87, 1.0 µg/ml mAb [18]: 49% | % Annexin V/PI-positive cells, NCI-N87, 3.0 µg/ml mAb [18]: 52% | % Annexin V/PI-positive cells, NCI-N87, 10 µg/ml mAb [18]: 55% | % Annexin V/PI-positive cells, NIH:OVCAR-3, 1.0 µg/ml mAb [18]: 40% | % Annexin V/PI-positive cells, NIH:OVCAR-3, 3.0 µg/ml mAb [18]: 51% | % Annexin V/PI-positive cells, NIH:OVCAR-3, 10 µg/ml mAb [18]: 56% | % Annexin V/PI-positive cells, T-47D, 1.0 µg/ml mAb [18]: 35% | % Annexin V/PI-positive cells, T-47D, 3.0 µg/ml mAb [18]: 44% | % Annexin V/PI-positive cells, T-47D, 10 µg/ml mAb [18]: 45%
B1: murine monoclonal antibody 4D2 (antibody, mouse IgG1, V domains shown)
VH: EVQLVESGGDLVKPGGSLKLSCAASGFAFDSYGMSWVRQTPGKRLEWVATISSGGYYTYYQDSVKGRFTTSRDNAKNTLDLQMSSLKSEDSAIYYCARRGNYDVDYYAMDYWGQGTSVTVSS
VL: DVVMTQTPLSLPVSLGDQASISCRSSQSLVHSNGNTYLHWYLQKPGQSPKLLIYKVSNRFSGVPDRFSGSGSGTDFTLRISRVEAEDLGVYFCSQSTHVPPWTFGGGTKLEIKR
notes: Mouse IgG1, kappa, from hybridoma; also called m338-4D2.20
